Article PMC4709948
pKd: −log10 of the molar value.

Biological target: GST-fused PRAK protein (UniProt Q8IW41)
Test: SPR; GST-fused PRAK captured by anti-GST antibodies on a CM5 chip; RAGE C-terminal region as analyte, 0 to 40 uM, HBS-EP buffer pH 7.4, 30 uL/min; Biacore X-100

UniProt Q8IW41, sequence (Q8IW41 whole entry, the tested form may be a part): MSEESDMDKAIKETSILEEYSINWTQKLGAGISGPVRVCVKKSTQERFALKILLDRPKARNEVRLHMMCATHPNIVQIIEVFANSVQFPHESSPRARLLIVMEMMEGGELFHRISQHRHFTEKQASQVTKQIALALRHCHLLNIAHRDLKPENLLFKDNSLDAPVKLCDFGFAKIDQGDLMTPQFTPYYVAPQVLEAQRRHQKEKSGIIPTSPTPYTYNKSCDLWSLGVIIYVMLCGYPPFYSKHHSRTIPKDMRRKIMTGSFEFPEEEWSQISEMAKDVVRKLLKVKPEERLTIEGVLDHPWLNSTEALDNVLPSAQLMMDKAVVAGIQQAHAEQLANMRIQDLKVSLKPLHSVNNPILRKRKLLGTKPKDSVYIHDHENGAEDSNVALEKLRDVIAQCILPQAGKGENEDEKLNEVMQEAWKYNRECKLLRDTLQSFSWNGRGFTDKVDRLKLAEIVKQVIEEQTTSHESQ

pKd: 9.29
Substance: RAGE C-terminal region, SPR analyte (domain or fragment)
